Results on one molecule are retold here after US20170081401A1 (CLOSED JOINT STOCK COMPANY BIOCAD, published 2017).

The target in experiment [1] is T1, monkey IL-17A (Macaca mulatta) (Macaca mulatta, UniProt F6T3G5 24-155). Nature of the experiment: BLI (OctetRed 96), BCD085 on AR2G sensors, monkey IL-17A as analyte, row 'Concentration (nm)' 68,7; 1:1 model; R^2 0,956946.
Procedure: (§1) The affinity of BCD085 binding with human, monkey and rat IL-17A was analyzed on OctetRed 96 (ForteBio). BCD085 was non-specifically immobilized on the surface of amine reactive second-generation sensors (AR2G) according to the standard protocol described in the manufacturer's manual. The test was conducted at a temperature of 30° C. and using PBS with 0.1% Tween-20 and 0.1% BSA as a working buffer.
(§2) Binding curves (after subtracting a reference signal) were analyzed using Octet Data Analysis software (Version 7.0) in accordance with the standard procedure and using 1:1 interaction model.
Experiment [2] deals with T1, monkey IL-17A (Macaca mulatta). Put plainly: BLI (OctetRed 96), BCD085 on AR2G sensors, monkey IL-17A as analyte, row 'Concentration (nm)' 34,4; 1:1 model; R^2 0,964905.
Procedure: as §1, §2
For experiment [3] the target is unchanged. Put plainly: BLI (OctetRed 96), BCD085 on AR2G sensors, monkey IL-17A as analyte, row 'Concentration (nm)' 17,2; 1:1 model; R^2 0,983707.
Procedure: as §1, §2
Experiment [4] concerns the target T2, human IL-17A (human, UniProt Q16552 20-155, limits assumed). Nature of the experiment: cell-based or functional assay.
Experiment [5] concerns the target T2, human IL-17A. Put plainly: BLI, OctetRed 96, BCD085 immobilized on AR2G sensors; human against monkey IL-17A. For orientation: BLI is a label-free optical method that tracks binding on a fibre tip over time.
Procedure: as §1, §2
In experiment [6] the target is T2, human IL-17A. Put plainly: BLI (OctetRed 96), BCD085 on AR2G sensors, human IL-17A as analyte, row 'Concentration (nm)' 68,6; 1:1 model; R^2 0,973327.
Procedure: as §1, §2
The target in another experiment is T3, rat IL-17A (rat, UniProt Q61453 18-150, limits assumed).
T3 sequence (looked up): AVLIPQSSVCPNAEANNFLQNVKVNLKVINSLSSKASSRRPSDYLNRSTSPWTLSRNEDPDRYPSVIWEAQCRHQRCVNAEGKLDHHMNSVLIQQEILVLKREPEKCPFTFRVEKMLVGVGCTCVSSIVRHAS
Nature of the experiment: BLI, OctetRed 96, BCD085 immobilized on AR2G sensors, IL-17A as analyte.

Experiment [7] has as its target T2, human IL-17A. Nature of the experiment: BLI (OctetRed 96), BCD085 on AR2G sensors, human IL-17A as analyte, row 'Concentration (nm)' 34,3; 1:1 model; R^2 0,937248.
Procedure: as §1, §2

T1 sequence (F6T3G5 entry or part of it): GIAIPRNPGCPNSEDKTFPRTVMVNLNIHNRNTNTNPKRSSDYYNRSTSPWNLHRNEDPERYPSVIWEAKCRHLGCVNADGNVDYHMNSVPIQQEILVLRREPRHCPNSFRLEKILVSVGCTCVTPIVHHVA
T2 sequence (Q16552 20-155 limits assumed): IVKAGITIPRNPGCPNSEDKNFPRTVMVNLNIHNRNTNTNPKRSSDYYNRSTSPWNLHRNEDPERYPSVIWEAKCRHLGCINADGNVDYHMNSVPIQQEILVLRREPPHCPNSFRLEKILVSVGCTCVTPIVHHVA
Procedure for rat IL-17A: as §1, §2

B1: BCD085 monoclonal anti-IL-17A antibody (antibody, V domains shown)
VH: QVQLVQSGGGLVQPGGSLRLSCAADGFTFSNYAMSWVRQAPGKGLEWVSRIEGGIGSSTYAVDSVKDRFTISRDDAKNTLYLQMSSLKTEDTAVYYCAVNYYGMYYWGQGTLVTVSS
VL: QSVLTQPPSVSVAPGKTVTISCTGTSEDVGFGNYVSWYQHLPGTAPKLLIYRVNTRPSGVPDRFSGSQSGNTASLTISGLQAEDEADYYCSSYKAGGTYVFGGGTKLTVLG
notes: Full-length antibody produced in CHO-S cells; also called the candidate; monoclonal anti-IL-17A antibody of the invention
On to B1, for which the Kd in experiment [1] is 5.97 nM; in experiment [2], 4.15 nM; in experiment [3], 2.22 nM; with human IL-17A [6] it was < 0.001 nM; in the experiment with human IL-17A [7], < 0.001 nM. In addition, the “IC50, blocking of IL-17-induced IL-6 production by human HT1080 cells (40 ng/ml IL-17 + 20 ng/ml TNF-alpha), IL-6 measured by ELISA” value with human IL-17A [4] came to 0.04 nM. Also, in the experiment with human IL-17A [5], the “fold stronger affinity than to monkey IL-17A” value turned out to be 1000 fold. Besides, the binding result with rat IL-17A is given as “no binding (tested: 126 nM (highest concentration titrated))”.

A word on the Kd: it is the equilibrium constant for the complex coming apart.
